Data on 4 molecules can be found in patent US20100184663A1.

Ends that are not written are not given here.

The target in assay [1] is D-IZN17 (HIV-1) (UniProt P04578). As to the kind of experiment: clonal phage binding assay in the presence of 25 µM L-2K-PIE2 competitor.
The target is the same in assay [2]. Put plainly: clonal phage binding assay, solution phase, D-IZN17 pulled down on streptavidin beads.

B1: PIE8-φ (peptide)
peptide: GACDYKEWQWLCAA
modifications: not fully specified (C-terminus); cysteine pairing not given here; also: displayed on M13 g3 protein
As for B1, the fold binding relative to PIE2-φ in the assay with D-IZN17 (HIV-1) [1] was 2 fold.
Turning to GACDYPEWRWLCAAA [PIE2-AAA-φ], the fold binding relative to wt PIE2-φ in the assay with D-IZN17 (HIV-1) [1] came to 70 fold.

B2: PIE2-φ (peptide)
peptide: GACDYPEWRWLCAA
modifications: not fully specified (C-terminus); cysteine pairing not given here; also: displayed on M13 g3 protein
B2: the fold binding relative to PIE9-φ in the assay with D-IZN17 (HIV-1) [1] worked out at 3 fold. In the assay with D-IZN17 (HIV-1) [2], the fold binding relative to PIE1-φ amounted to 5 fold.

B3: PIE7-φ (peptide)
peptide: GACDYPEWQWLCAA
modifications: not fully specified (C-terminus); cysteine pairing not given here; also: displayed on M13 g3 protein
As to B3, the fold binding relative to PIE2-φ with D-IZN17 (HIV-1) [1] amounted to 10 fold.
